Laboratory results reported in publication PMC6440998, “Tunable microsecond dynamics of an allosteric switch regulate the activity of a AAA+ disaggregation machine” (Nature Communications, 2019).

System: T1, Nc1ncnc2c1ncn2[C@@H]1O[C@H](COP(=O)(O)OP(=O)(O)OP(=O)(O)O)[C@@H](O)[C@H]1O
T1 construct: full length, N-domain, NBD1, M domain, NBD2; pET28b, His6 tag with TEV cleavage site; expressed in E. coli BL21(DE3) pLysS; homohexamer
Test: purified protein
Format: biochemical, Thermus thermophilus
Details: basal activity, no casein, 50 mM HEPES pH 7.8, 50 mM KCl, 10 mM MgCl2, 25 °C, Hill fit

TT ClpB (Thermus thermophilus HB8), sequence (chain, as listed by the source): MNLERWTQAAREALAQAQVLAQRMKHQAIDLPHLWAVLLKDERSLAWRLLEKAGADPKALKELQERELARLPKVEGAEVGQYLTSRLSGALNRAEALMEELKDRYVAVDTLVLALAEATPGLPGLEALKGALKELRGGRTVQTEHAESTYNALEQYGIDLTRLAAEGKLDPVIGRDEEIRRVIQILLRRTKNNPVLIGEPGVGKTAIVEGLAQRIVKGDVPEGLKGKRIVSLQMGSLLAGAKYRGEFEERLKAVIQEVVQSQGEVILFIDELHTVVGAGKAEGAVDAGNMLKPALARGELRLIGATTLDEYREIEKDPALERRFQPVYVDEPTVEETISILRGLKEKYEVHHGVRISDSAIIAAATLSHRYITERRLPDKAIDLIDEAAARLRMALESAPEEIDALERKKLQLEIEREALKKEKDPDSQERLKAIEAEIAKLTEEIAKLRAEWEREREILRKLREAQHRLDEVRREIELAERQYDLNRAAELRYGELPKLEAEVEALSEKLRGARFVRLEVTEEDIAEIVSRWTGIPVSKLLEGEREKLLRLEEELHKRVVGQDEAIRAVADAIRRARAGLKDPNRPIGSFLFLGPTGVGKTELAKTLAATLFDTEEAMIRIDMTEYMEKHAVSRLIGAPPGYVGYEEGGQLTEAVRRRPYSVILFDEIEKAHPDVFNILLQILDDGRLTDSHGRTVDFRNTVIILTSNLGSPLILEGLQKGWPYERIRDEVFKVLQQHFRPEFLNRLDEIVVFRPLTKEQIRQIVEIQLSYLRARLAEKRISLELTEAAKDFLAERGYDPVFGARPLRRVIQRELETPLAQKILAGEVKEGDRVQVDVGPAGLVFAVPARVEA

Sequence: TT ClpB (Thermus thermophilus HB8)
- K0.5: 390 ± 15 µM
- kcat: 0.0533 ± 0.00167 s⁻¹
